Paper PMC5221731

Target: N-terminally hexahistidine-tagged wildtype Chinese hamster BiP, unmodified (non-AMPylated) (Chinese hamster) (UniProt G3I8R9)
Assay: native gel or EMSA

- stoichiometry N: 2
Substance: N-terminally hexahistidine-tagged wildtype Chinese hamster BiP, unmodified (non-AMPylated) (from UniProt G3I8R9 19-654) (natural protein)
